± gives the standard deviation of the averaged measurements.
B1: library; a variant is named by its letters at N, in order (parent)
chain: GCUGUCACCGGAAUACCAGCAUCGUCUUGAUGCCCUUGGAAGUCCGGUCUGAUGAGUCCNNNNNGGACGAAACAGC

Experiments:
theophylline [1] = variants of: B1; assay: FACS-Seq fitted mean relative fluorescence mCherry/BFP without ligand (log10 relative fluorescence); higher = higher reporter protein expression; conditions: HEK293T, ligand present: no
Experimental: (§1)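 Hammerhead (sTRSV) ribozyme switch libraries with a ligand aptamer grafted on stem I and a randomized N4-6 loop II, cloned into the 3' UTR of mCherry and transiently transfected into HEK293T cells; RNA-Seq 72 h post transfection with ligand added 1 h before transfection; RNA read count / plasmid DNA read count normalized to the non-cleaving sTRSVctl (x100), log10; sequences with >100 DNA reads. FACS-Seq: lentiviral library sorted into 6 bins after 48 h ligand, log-normal fit mean of mCherry/BFP scaled to controls. Printed sequences are partial switch sequences.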

theophylline [2] = variants of: B1; assay: normalized RNA/DNA level with ligand (relative to sTRSVctl = 100) (log10 (% of sTRSVctl)); higher = less ribozyme self-cleavage, higher mRNA level; conditions: ligand concentration (+) RNA-Seq: 5 mM, HEK293T, reporter: mCherry (pCS4076), ligand present: yes
Experimental: as §1

theophylline [3] = variants of: B1; assay: normalized RNA/DNA level without ligand (relative to sTRSVctl = 100) (log10 (% of sTRSVctl)); higher = less ribozyme self-cleavage, higher mRNA level; conditions: HEK293T, reporter: mCherry (pCS4076), ligand present: no
Experimental: as §1

theophylline [4] = variants of: B1; assay: FACS-Seq fitted mean relative fluorescence mCherry/BFP with ligand (log10 relative fluorescence); ligand concentration (+) FACS-Seq: 1 mM; higher = higher reporter protein expression; conditions: HEK293T, ligand present: yes
Experimental: as §1

Variant	FACS-Seq fitted mean (log10) (theophylline [1])	normalized RNA/DNA level with ligand (log10) (theophylline [2])	normalized RNA/DNA level without ligand (log10) (theophylline [3])	FACS-Seq fitted mean (log10) (theophylline [4])
CCUUA	0.654 ± 0.02	1.992 ± 0.0039	1.73 ± 0.1	0.707 ± 0.035
UCUAU	0.822 ± 0.091	2.051 ± 0.0076	1.867 ± 0.015	0.994 ± 0.05
UCUAA	0.476 ± 0.055	2.03 ± 0.14	1.68 ± 0.095	0.588 ± 0.039
AGGCA	0.779 ± 0.085	1.99 ± 0.039	1.79 ± 0.057	0.896 ± 0.1
UCGAC	0.96 ± 0.048	1.9 ± 0.12	1.78 ± 0.059	0.965 ± 0.022
UCGAA	0.342 ± 0.019	1.97 ± 0.055	1.48 ± 0.066	0.951 ± 0.086
UCGAU	0.605 ± 0.16	2.087 ± 0.0041	1.78 ± 0.12	0.815 ± 0.057
CCUGA	0.9447 ± 0.0047	2.02 ± 0.028	1.92 ± 0.16	0.904 ± 0.0082
CCUGC	0.976 ± 0.012	2.02 ± 0.034	2.09 ± 0.054	0.899 ± 0.054
CGCUA	0.353 ± 0.072	1.87 ± 0.069	1.48 ± 0.041	0.612 ± 0.076
CGCUU	0.746 ± 0.19	1.99 ± 0.087	1.62 ± 0.075	0.896 ± 0.11
CGCAC	0.436 ± 0.065	2.01 ± 0.17	1.9 ± 0.14	0.521 ± 0.017
CGCAU	0.678 ± 0.078	1.99 ± 0.018	1.68 ± 0.14	0.776 ± 0.017
CGCAA	0.17 ± 0.043	1.888 ± 0.006	1.49 ± 0.074	0.271 ± 0.06
CCUCC	0.993 ± 0.035	2.092 ± 0.0026	2.0411 ± 0.0014	0.89 ± 0.046
CCUCU	0.198 ± 0.07	1.93 ± 0.039	1.87 ± 0.036	0.0585 ± 0.1
CGAAU	0.071 ± 0.019	1.929 ± 0.0065	1.43 ± 0.076	0.306 ± 0.0069
CGAAC	0.992 ± 0.11	1.96 ± 0.076	1.72 ± 0.026	1.02 ± 0.089
CGAAA	0.0755 ± 0.05	1.94 ± 0.023	1.31 ± 0.092	0.587 ± 0.042
ACUUU	0.872 ± 0.15	2.012 ± 0.0039	1.89 ± 0.022	0.813 ± 0.11
ACUUA	0.5998 ± 0.0045	2.05 ± 0.037	1.78 ± 0.032	0.66 ± 0.015
AGGAA	0.0559 ± 0.0084	1.85 ± 0.12	1.17 ± 0.079	0.552 ± 0.029
AGGAC	0.549 ± 0.067	1.97 ± 0.089	1.81 ± 0.12	0.721 ± 0.074
AGGAG	0.642 ± 0.032	1.92 ± 0.022	1.73 ± 0.072	0.834 ± 0.045

Variant	FACS-Seq fitted mean (log10) (theophylline [1])	normalized RNA/DNA level with ligand (log10) (theophylline [2])	normalized RNA/DNA level without ligand (log10) (theophylline [3])	FACS-Seq fitted mean (log10) (theophylline [4])
ACUAA	0.266 ± 0.016	2.002 ± 0.01	1.65 ± 0.2	0.391 ± 0.0057
ACUAU	0.418 ± 0.065	1.982 ± 0.019	1.84 ± 0.13	0.461 ± 0.041
ACUAG	1.14 ± 0.18	2 ± 0.067	2.01 ± 0.043	1.08 ± 0.11
ACUAC	0.929 ± 0.041	1.98 ± 0.093	1.98 ± 0.084	0.984 ± 0.13
ACGCC	1.08 ± 0.17	1.95 ± 0.074	1.94 ± 0.19	0.984 ± 0.017
ACGCU	0.995 ± 0.016	2.08 ± 0.17	1.914 ± 0.019	1.01 ± 0.031
ACGCG	1.002 ± 0.0074	2.009 ± 0.009	1.86 ± 0.036	1.09 ± 0.058
ACGCA	0.6839 ± 0.0046	1.99 ± 0.053	1.77 ± 0.03	0.824 ± 0.049
CCUAC	0.87 ± 0.071	2.01 ± 0.038	1.99 ± 0.072	0.871 ± 0.066
CCUAU	0.969 ± 0.015	2.06 ± 0.025	1.867 ± 0.0061	1.05 ± 0.031
CCUAA	0.523 ± 0.071	1.98 ± 0.04	1.71 ± 0.13	0.725 ± 0.073
CCCUU	1.13 ± 0.16	1.99 ± 0.035	1.89 ± 0.049	1.07 ± 0.036
GCGAU	0.428 ± 0.072	1.96 ± 0.025	1.7 ± 0.18	0.549 ± 0.1
CCGCU	0.291 ± 0.035	2.09 ± 0.012	1.81 ± 0.024	0.381 ± 0.0062
CCGCA	0.678 ± 0.047	2.08 ± 0.025	1.83 ± 0.043	0.764 ± 0.0084
CCGCC	1.17 ± 0.096	2.0217 ± 0.0019	1.96 ± 0.033	1.18 ± 0.036
CGCGA	0.995 ± 0.15	1.97 ± 0.12	1.767 ± 0.014	0.923 ± 0.055
CGCGU	0.348 ± 0.12	1.91 ± 0.11	1.842 ± 0.0033	0.441 ± 0.23
AGCUC	0.692 ± 0.15	2.04 ± 0.2	1.9 ± 0.046	0.565 ± 0.047
AGCUA	0.662 ± 0.064	2.03 ± 0.037	1.76 ± 0.044	0.7922 ± 0.0018
CCGAA	-0.229 ± 0.1	1.93 ± 0.06	1.4 ± 0.089	0.178 ± 0.11
CCGAU	0.974 ± 0.065	2 ± 0.047	1.64 ± 0.11	1.06 ± 0.11
CCGAC	0.958 ± 0.04	1.94 ± 0.04	1.91 ± 0.13	1.06 ± 0.043
UGCGC	0.574 ± 0.085	2.04 ± 0.035	1.96 ± 0.15	0.522 ± 0.1

Variant	FACS-Seq fitted mean (log10) (theophylline [1])	normalized RNA/DNA level with ligand (log10) (theophylline [2])	normalized RNA/DNA level without ligand (log10) (theophylline [3])	FACS-Seq fitted mean (log10) (theophylline [4])
UGCGA	0.439 ± 0.02	1.9 ± 0.039	1.58 ± 0.06	0.659 ± 0.03
UGCGU	0.83 ± 0.044	1.97 ± 0.088	1.923 ± 0.018	0.761 ± 0.07
UGGAC	0.19 ± 0.013	2 ± 0.049	1.93 ± 0.056	0.236 ± 0.01
UGGAU	0.442 ± 0.064	2 ± 0.12	1.79 ± 0.056	0.624 ± 0.073
ACGAG	0.428 ± 0.049	2.05 ± 0.026	1.85 ± 0.073	0.448 ± 0.017
ACGAA	0.287 ± 0.046	1.97 ± 0.098	1.51 ± 0.045	0.661 ± 0.025
ACGAC	1.26 ± 0.14	1.981 ± 0.0072	1.834 ± 0.018	1.19 ± 0.2
ACGAU	0.425 ± 0.067	2.06 ± 0.059	1.69 ± 0.15	0.552 ± 0.049
AGACG	0.74 ± 0.1	2.01 ± 0.082	1.89 ± 0.021	0.863 ± 0.018
AGACA	0.0301 ± 0.062	1.87 ± 0.04	1.72 ± 0.031	0.35727 ± 0.0003
CGAGU	0.892 ± 0.093	1.992 ± 0.01	1.9 ± 0.02	0.873 ± 0.12
CGAGC	0.548 ± 0.016	2.013 ± 0.0077	1.94 ± 0.042	0.508 ± 0.037
CGAGA	0.788 ± 0.0071	1.93 ± 0.022	1.58 ± 0.18	0.841 ± 0.032
AGCAA	0.327 ± 0.12	1.94 ± 0.035	1.46 ± 0.09	0.627 ± 0.067
AGCAG	0.801 ± 0.041	2.03 ± 0.12	1.81 ± 0.027	0.944 ± 0.048
AGCAC	0.712 ± 0.13	2.08 ± 0.088	1.91 ± 0.12	0.669 ± 0.012
UGCCA	0.592 ± 0.11	1.9 ± 0.096	1.82 ± 0.068	0.481 ± 0.044
UGCCC	0.979 ± 0.077	2.01 ± 0.026	2.03 ± 0.043	0.875 ± 0.012
UGCCG	1.06 ± 0.058	2.04 ± 0.043	2.02 ± 0.055	0.883 ± 0.027
UGCCU	0.875 ± 0.16	2.08 ± 0.077	1.891 ± 0.007	0.867 ± 0.079
UGAUA	0.3741 ± 0.0021	1.955 ± 0.0019	1.42 ± 0.17	0.789 ± 0.084
UGAUG	0.912 ± 0.0092	2.005 ± 0.00081	1.91 ± 0.14	0.848 ± 0.11
UGAUC	0.156 ± 0.012	1.88 ± 0.045	1.91 ± 0.099	0.331 ± 0.012
UGAUU	0.448 ± 0.028	1.96 ± 0.071	1.7 ± 0.12	0.437 ± 0.11

Source: the supplement of paper PMC6757056
